According to patent publication US20240052042A1 (Novartis, published 2024):

T1: human NPR1 on CHO-K1 cells (human, UniProt P16066 33-1061)
T1 sequence: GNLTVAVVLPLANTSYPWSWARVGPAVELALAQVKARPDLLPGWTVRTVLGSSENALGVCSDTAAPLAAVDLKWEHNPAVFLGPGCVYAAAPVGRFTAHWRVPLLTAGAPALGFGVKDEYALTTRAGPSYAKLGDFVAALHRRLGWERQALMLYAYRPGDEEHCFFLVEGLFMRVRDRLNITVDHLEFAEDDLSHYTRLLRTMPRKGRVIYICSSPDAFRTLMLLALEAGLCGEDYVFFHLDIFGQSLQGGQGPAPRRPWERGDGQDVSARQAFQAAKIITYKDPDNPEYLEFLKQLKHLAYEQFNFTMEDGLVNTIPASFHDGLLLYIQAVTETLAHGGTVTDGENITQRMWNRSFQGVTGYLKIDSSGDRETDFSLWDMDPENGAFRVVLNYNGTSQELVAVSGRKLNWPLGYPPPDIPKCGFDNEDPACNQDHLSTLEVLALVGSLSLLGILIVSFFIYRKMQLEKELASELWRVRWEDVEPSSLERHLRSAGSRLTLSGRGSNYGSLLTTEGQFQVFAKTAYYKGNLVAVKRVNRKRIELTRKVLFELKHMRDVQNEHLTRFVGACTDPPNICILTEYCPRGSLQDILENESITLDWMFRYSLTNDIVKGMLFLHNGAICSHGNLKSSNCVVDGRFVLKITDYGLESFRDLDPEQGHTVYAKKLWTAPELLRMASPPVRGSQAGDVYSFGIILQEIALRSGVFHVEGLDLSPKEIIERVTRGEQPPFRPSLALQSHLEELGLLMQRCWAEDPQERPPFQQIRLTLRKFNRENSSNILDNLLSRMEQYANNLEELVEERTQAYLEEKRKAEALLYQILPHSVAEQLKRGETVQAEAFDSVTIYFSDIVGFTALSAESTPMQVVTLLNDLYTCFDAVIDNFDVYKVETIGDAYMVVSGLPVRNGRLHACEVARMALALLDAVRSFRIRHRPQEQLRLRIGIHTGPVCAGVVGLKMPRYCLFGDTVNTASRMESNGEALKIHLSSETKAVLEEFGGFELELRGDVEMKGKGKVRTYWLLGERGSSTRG

T2: human Natriuretic Peptide Receptor 1 (hNPR1) (human, UniProt P16066 33-473, limits assumed)
T2 construct: pannings used NPR1-hFc; also called NPR1-hFc
T2 sequence: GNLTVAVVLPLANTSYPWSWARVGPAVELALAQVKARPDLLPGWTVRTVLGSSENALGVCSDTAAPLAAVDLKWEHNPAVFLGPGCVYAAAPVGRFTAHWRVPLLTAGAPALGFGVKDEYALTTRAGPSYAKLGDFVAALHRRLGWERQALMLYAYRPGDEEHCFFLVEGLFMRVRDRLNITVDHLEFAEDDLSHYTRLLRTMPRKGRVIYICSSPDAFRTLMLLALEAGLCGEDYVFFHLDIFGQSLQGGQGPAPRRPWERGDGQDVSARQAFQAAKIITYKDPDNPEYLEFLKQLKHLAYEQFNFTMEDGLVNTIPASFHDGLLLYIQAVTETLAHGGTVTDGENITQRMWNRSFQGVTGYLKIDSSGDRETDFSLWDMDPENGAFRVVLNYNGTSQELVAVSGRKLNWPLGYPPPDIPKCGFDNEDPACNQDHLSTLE

T3: rNPR1-ANP complex (rat, UniProt P01160 124-151 (human entry), limits assumed)
T3 construct: rNPR1 antigen in the presence of ANP; also called rNPR1 + 100 nM ANP
T3 sequence: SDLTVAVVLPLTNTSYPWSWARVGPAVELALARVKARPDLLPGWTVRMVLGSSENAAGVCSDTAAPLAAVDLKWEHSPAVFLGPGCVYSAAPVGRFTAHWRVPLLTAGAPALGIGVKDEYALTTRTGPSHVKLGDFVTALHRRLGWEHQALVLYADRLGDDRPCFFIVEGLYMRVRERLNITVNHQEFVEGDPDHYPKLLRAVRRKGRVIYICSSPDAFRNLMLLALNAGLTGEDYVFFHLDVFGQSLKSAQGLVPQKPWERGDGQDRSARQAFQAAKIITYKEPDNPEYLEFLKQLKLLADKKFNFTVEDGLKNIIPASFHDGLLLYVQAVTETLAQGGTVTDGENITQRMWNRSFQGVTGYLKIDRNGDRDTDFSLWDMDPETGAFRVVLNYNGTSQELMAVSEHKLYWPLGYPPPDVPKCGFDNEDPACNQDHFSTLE
T3 sequence (peptide): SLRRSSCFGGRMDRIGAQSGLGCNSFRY

T4: hNPR1-ANP complex (human, UniProt P01160 124-151, limits assumed)
T4 construct: hNPR1 antigen in the presence of ANP; also called hNPR1 + 100 nM ANP
T4 sequence: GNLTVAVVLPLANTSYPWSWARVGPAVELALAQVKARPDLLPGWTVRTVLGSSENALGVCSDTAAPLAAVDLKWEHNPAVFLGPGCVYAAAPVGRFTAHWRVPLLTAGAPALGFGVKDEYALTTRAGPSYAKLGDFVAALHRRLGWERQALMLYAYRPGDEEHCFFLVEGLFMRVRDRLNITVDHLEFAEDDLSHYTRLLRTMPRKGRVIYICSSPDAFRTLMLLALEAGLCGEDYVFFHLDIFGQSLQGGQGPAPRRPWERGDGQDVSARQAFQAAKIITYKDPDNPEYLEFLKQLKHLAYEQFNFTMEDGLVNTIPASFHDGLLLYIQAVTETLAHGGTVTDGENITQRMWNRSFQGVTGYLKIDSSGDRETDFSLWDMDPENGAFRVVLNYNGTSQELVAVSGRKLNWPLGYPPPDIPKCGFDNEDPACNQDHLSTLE
T4 sequence (peptide): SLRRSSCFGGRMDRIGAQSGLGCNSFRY

T5: rat NPR1 (rNPR1) (rat, UniProt P18910 29-469, limits assumed)
T5 construct: Soluble antigen
T5 sequence: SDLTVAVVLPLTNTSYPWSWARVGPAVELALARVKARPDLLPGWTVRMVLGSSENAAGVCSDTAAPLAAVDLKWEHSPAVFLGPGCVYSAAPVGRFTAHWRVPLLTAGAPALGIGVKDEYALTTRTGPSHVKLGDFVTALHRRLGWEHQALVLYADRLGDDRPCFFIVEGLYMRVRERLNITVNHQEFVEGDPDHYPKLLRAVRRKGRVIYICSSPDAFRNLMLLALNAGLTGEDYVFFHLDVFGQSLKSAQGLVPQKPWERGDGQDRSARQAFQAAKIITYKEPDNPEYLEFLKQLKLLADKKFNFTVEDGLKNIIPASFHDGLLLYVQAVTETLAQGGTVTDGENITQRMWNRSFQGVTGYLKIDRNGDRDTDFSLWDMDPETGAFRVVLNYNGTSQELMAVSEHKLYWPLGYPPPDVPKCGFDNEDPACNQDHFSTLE


Columns and labels:
[1] = target: T1, human NPR1 on CHO-K1 cells; test: cell-based or functional assay
[2] = target: T2, human Natriuretic Peptide Receptor 1 …; test: Octet, FabCys
rNPR1-ANP complex [3] = target: T3, rNPR1-ANP complex; test: Octet, FabCys
hNPR1-ANP complex [4] = target: T4, hNPR1-ANP complex; test: Octet, FabCys
rat NPR1 (rNPR1) [5] = target: T5, rat NPR1 (rNPR1); test: Octet, FabCys
[6] = target: T2, human Natriuretic Peptide Receptor 1 …; test: FabCys, parental value by Octet (table comment), as in Table 14
rNPR1-ANP complex [7] = target: T3, rNPR1-ANP complex; test: as above
hNPR1-ANP complex [8] = target: T4, hNPR1-ANP complex; test: as above
rat NPR1 (rNPR1) [9] = target: T5, rat NPR1 (rNPR1); test: as above
[10] = target: T2, human Natriuretic Peptide Receptor 1 …; test: FabCys affinity (Octet per Table 18 comment)
rNPR1-ANP complex [11] = target: T3, rNPR1-ANP complex; test: FabCys affinity (Octet per Table 18 comment)
hNPR1-ANP complex [12] = target: T4, hNPR1-ANP complex; test: FabCys affinity (Octet per Table 18 comment)
rat NPR1 (rNPR1) [13] = target: T5, rat NPR1 (rNPR1); test: FabCys affinity (Octet per Table 18 comment)
[14] = target: T2, human Natriuretic Peptide Receptor 1 …; test: FabCys, parental value as in Table 14 (no method comment)
hNPR1-ANP complex [15] = target: T4, hNPR1-ANP complex; test: as above
[16] = target: T2, human Natriuretic Peptide Receptor 1 …; test: FabCys affinity determination
hNPR1-ANP complex [17] = target: T4, hNPR1-ANP complex; test: FabCys affinity determination

| cGMP conc [nM] at 1 µM FabCys, +0.075 nM ANP [1] | cGMP conc [nM] at 1 µM FabCys, without ANP [1] | Kd [2] | Kd (rNPR1-ANP complex [3]) | Kd (hNPR1-ANP complex [4]) | Kd (rat NPR1 (rNPR1) [5]) | Kd [6] | Kd (rNPR1-ANP complex [7]) | Kd (hNPR1-ANP complex [8]) | Kd (rat NPR1 (rNPR1) [9]) | Kd [10] | Kd (rNPR1-ANP complex [11]) | Kd (hNPR1-ANP complex [12]) | Kd (rat NPR1 (rNPR1) [13]) | Kd [14] | Kd (hNPR1-ANP complex [15]) | Kd [16] | Kd (hNPR1-ANP complex [17]) | Binder |
| --- | --- | --- | --- | --- | --- | --- | --- | --- | --- | --- | --- | --- | --- | --- | --- | --- | --- | --- |
| 75 nM | 20 nM | 0.62 nM | 38 nM | 0.8 nM | 100 nM | 0.5 nM | 1400 nM | 1 nM | 1600 nM | 0.5 nM | 1400 nM | 1 nM | 1600 nM |  |  |  |  | YY06 (FabCys format) (Fab, V domains shown, Monovalent FabCys) VH: EVQLLESGGGLVQPGGSLRLSCAASGFTFSSYAISWVRQAPGKGLEWVSAISGSGGSTYYAESVKGRFTISRDNSKNTLYLQMNSLRAEDTAVYYCARPYLGDRRSYGFDHWGQGTLVTVSS VL: QSALTQPASVSGSPGQSITISCTGTSSDVGSYNLVSWYQQHPGKAPKLMIYEGSKRPSGVSNRFSGSKSGNTASLTISGLQAEDEADYYCSSYGFHIVVVVFGGGTKLTVL |
| 88 nM | 77 nM |  |  |  |  |  |  |  |  |  |  |  |  | 1.8 nM | 590 nM | 1.8 nM | 590 nM | YY07 (FabCys format) (Fab, V domains shown, Monovalent FabCys) VH: EVQLVQSGAEVKKPGESLKISCKGSGYSFTSYWISWVRQMPGKGLEWMGIIYPGTSYTRYSPSFQGQVTISADKSISTAYLQWSSLKASDTAMYYCARGSLPGLLGFDHWGQGTLVTVSS VL: QSVLTQPPSVSGAPGQRVTISCTGSSSNIGAGYDVHWYQQLPGTAPKLLIYGNSNRPNGVPDRFSGSKSGTSASLAITGLQAEDEADYYCQSYDSPTSSSVFGGGTKLTVL |
